Substitutions are numbered along the chain they refer to.
T1: human GIP receptor (human) (UniProt P48546)
T1 sequence (looked up): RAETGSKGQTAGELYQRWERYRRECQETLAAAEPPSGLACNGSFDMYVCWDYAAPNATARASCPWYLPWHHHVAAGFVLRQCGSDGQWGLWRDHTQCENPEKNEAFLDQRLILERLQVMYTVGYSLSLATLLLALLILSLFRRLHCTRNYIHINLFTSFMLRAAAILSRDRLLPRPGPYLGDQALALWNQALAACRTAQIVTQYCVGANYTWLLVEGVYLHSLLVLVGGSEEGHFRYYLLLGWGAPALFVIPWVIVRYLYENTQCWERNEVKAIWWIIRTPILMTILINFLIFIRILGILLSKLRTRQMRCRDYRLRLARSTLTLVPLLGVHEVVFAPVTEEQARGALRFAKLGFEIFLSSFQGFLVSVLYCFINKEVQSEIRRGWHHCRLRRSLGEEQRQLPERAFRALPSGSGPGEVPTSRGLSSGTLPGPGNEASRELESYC

B1: Example 204 (peptide)
chain: YXQGTFTSDFSXXLDKKAQXAFIEYLLEAGPSSGAPPPSGT
modifications: non-natural residues, (γGlu)2-C18 diacid lysine acylation, C-terminal amide; synthetic construct; SITE 2: note = 2-Aminoisobutyric Acid; SITE 12: note = L-ornithine; SITE 13: note = alpha-methyl-leucine; SITE 17: note = Lysine is chemically modified through conjugation of the epsilon-amino group of the Lysine side chain with (gamma-Glu)2-CO-(CH2)16-CO2H; SITE 20: note = 2-Am
B2: Example 254 (peptide)
chain: B1 chain with A35X, T41S
modifications: synthetic construct; SITE 2: note = 2-Aminoisobutyric Acid; SITE 12: note = L-ornithine; SITE 13: note = alpha-methyl-leucine; SITE 17: note = Lysine is chemically modified through conjugation of the epsilon-amino group of the Lysine side chain with (2-[2-(2-Amino-ethoxy)-ethoxy]-acetyl)2-(gamma-Glu)
B3: Example 231 (peptide)
chain: B1 chain with X12R, L27I, A29X, P31E, T41E
modifications: non-natural residues; lipidated Lys; C-terminal amide; synthetic construct; SITE 2: note = 2-Aminoisobutyric Acid; SITE 13: note = alpha-methyl-leucine; SITE 17: note = Lysine is chemically modified through conjugation of the epsilon-amino group of the Lysine side chain with (2-[2-(2-Amino-ethoxy)-ethoxy]-acetyl)-(gamma-Glu)-CO-(CH2) 16-CO2H; SITE 20: n
B4: Example 209 (peptide)
chain: B1 chain with T41S
modifications: Aib, Orn, αMeL, D-Ala, acylated Lys, C-terminal amide; synthetic construct; SITE 2: note = 2-Aminoisobutyric Acid; SITE 12: note = L-ornithine; SITE 13: note = alpha-methyl-leucine; SITE 17: note = Lysine is chemically modified through conjugation of the epsilon-amino group of the Lysine side chain with (2-[2-(2-Amino-ethoxy)-ethoxy]-acetyl)-(gamma-Glu)
B5: Example 233 (peptide)
chain: B1 chain with X12Q, L27I, A29X, P31E, T41E
modifications: non-natural residues; AEEA-γGlu-C18 diacid on Lys; C-terminal amide; synthetic construct; SITE 2: note = 2-Aminoisobutyric Acid; SITE 13: note = alpha-methyl-leucine; SITE 17: note = Lysine is chemically modified through conjugation of the epsilon-amino group of the Lysine side chain with (2-[2-(2-Amino-ethoxy)-ethoxy]-acetyl)-(gamma-Glu)-CO-(CH2) 16-CO2H; SITE 20: n
B6: Example 241 (peptide)
chain: B1 chain with A29X, P31H, T41S
modifications: non-natural residues; C18 diacid-γGlu-AEEA on Lys; C-terminal amide; synthetic construct; SITE 2: note = 2-Aminoisobutyric Acid; SITE 12: note = L-ornithine; SITE 13: note = alpha-methyl-leucine; SITE 17: note = Lysine is chemically modified through conjugation of the epsilon-amino group of the Lysine side chain with (2-[2-(2-Amino-ethoxy)-ethoxy]-acetyl)-(gamma-Glu)
B7: Example 214 (peptide)
chain: B1 chain with G34X
modifications: Lys acylated with AEEA-γGlu-C18 diacid; non-natural residues; C-amide; synthetic construct; SITE 2: note = 2-Aminoisobutyric Acid; SITE 12: note = L-ornithine; SITE 13: note = alpha-methyl-leucine; SITE 17: note = Lysine is chemically modified through conjugation of the epsilon-amino group of the Lysine side chain with (2-[2-(2-Amino-ethoxy)-ethoxy]-acetyl)-(gamma-Glu)
B8: Example 238 (peptide)
chain: B1 chain with A29X, G34X, T41S
modifications: Aib, Orn, αMeL, lipidated Lys, C-terminal amide; synthetic construct; SITE 2: note = 2-Aminoisobutyric Acid; SITE 12: note = L-ornithine; SITE 13: note = alpha-methyl-leucine; SITE 17: note = Lysine is chemically modified through conjugation of the epsilon-amino group of the Lysine side chain with (2-[2-(2-Amino-ethoxy)-ethoxy]-acetyl)-(gamma-Glu)
B9: Example 223 (peptide)
chain: B1 chain with F10X, L27I, A29X, P31E, T41S
modifications: Aib, 4Pal, Orn, αMeL, αMe4Pal, acylated Lys, amide; synthetic construct; SITE 2: note = 2-Aminoisobutyric Acid; SITE 10: note = 3-(4-Pyridyl)-L-alanine; SITE 12: note = L-ornithine; SITE 13: note = alpha-methyl-leucine; SITE 17: note = Lysine is chemically modified through conjugation of the epsilon-amino group of the Lysine side chain with (2-[2-(2-
B10: Example 253 (peptide)
chain: B1 chain with A35H, T41S
modifications: synthetic construct; SITE 2: note = 2-Aminoisobutyric Acid; SITE 12: note = L-ornithine; SITE 13: note = alpha-methyl-leucine; SITE 17: note = Lysine is chemically modified through conjugation of the epsilon-amino group of the Lysine side chain with (2-[2-(2-Amino-ethoxy)-ethoxy]-acetyl)2-(gamma-Glu)
B11: Example 222 (peptide)
chain: B1 chain with F10X, L27I, A29X, P31E, T41E
modifications: non-natural residues; Lys acylated C18 diacid; C-terminal amide; synthetic construct; SITE 2: note = 2-Aminoisobutyric Acid; SITE 10: note = 3-(4-Pyridyl)-L-alanine; SITE 12: note = L-ornithine; SITE 13: note = alpha-methyl-leucine; SITE 17: note = Lysine is chemically modified through conjugation of the epsilon-amino group of the Lysine side chain with (2-[2-(2-
B12: Example 212 (peptide)
chain: B1 chain with T41S
modifications: Aib, Orn, αMeL, D-Ala; acylated Lys; synthetic construct; SITE 2: note = 2-Aminoisobutyric Acid; SITE 12: note = L-ornithine; SITE 13: note = alpha-methyl-leucine; SITE 17: note = Lysine is chemically modified through conjugation of the epsilon-amino group of the Lysine side chain with (2-[2-(2-Amino-ethoxy)-ethoxy]-acetyl)-(gamma-Glu)

target: hGLP-1R (Homo sapiens, UniProt P43220); test: cell-based or functional assay
Sequence (P43220 24-463): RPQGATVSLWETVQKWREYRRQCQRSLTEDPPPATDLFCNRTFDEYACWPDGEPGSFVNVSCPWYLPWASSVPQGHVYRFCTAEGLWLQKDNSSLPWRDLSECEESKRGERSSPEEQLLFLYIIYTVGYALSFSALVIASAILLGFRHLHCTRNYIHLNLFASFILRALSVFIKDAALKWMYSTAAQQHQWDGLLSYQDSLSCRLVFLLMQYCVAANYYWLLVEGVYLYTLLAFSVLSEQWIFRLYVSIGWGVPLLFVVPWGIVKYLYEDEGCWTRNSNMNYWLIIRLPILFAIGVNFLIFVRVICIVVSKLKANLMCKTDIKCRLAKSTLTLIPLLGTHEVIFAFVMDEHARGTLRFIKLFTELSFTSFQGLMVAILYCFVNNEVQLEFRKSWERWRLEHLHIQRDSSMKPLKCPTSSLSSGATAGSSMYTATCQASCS

Binder	Relative cAMP EC50	cAMP Rel EC50, nM (1% HSA)	cAMP Rel EC50 (in the presence of 1% HSA)
B1	2.34 nM	306 nM	–
B2	3.08 nM	–	265 nM
B3	1.3 nM	223 nM	–
B4	1.78 nM	–	–
B5	0.874 nM	223 nM	–
B6	2.3 nM	–	–
B7	1.22 nM	186 nM	–
B8	2.71 nM	262 nM	–
B9	2.83 nM	627 nM	–
B10	2.2 nM	–	355 nM
B11	3.64 nM	753 nM	–
B12	1.35 nM	–	–

target: human GLP-1R (SNAP-GLP-1R expressed in HEK293 cells) (human) (UniProt P43220); test: cell-based or functional assay
Sequence (P43220 24-463): as above

Binder	GLP1R Internalization EC50	Internalization % TOP
B1	66.4 nM	45.5%
B2	31.9 nM	47.8%
B3	36.1 nM	27.7%
B4	83.1 nM	41.2%
B5	24.8 nM	41.8%
B6	64.4 nM	37.6%
B7	50.1 nM	41.7%
B8	32.1 nM	38.2%
B9	45.8 nM	59.3%
B10	81.6 nM	55.2%
B11	34.6 nM	52.4%
B12	79.7 nM	43%

target: human glucagon receptor (human) (UniProt P47871); test: cell-based or functional assay
Sequence (P47871 26-477): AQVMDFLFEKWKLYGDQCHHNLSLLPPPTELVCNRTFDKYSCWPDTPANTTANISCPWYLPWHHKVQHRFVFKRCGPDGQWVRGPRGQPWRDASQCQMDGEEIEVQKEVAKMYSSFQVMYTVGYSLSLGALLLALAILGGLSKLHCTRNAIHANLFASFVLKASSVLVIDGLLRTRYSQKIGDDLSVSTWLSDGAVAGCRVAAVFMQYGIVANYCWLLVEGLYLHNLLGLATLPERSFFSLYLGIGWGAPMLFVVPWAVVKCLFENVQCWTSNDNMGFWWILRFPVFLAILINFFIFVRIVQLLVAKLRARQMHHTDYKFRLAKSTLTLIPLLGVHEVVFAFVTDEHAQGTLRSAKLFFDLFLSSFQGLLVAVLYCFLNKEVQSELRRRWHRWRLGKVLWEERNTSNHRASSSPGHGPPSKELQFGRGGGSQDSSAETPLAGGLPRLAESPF

Binder	Relative cAMP EC50	cAMP Rel EC50, nM (1% HSA)	cAMP Rel EC50 (in the presence of 1% HSA)
B1	6.92 nM	572 nM	–
B2	4.9 nM	–	767 nM
B3	2.12 nM	443 nM	–
B4	3.08 nM	–	–
B5	2.25 nM	453 nM	–
B6	2.71 nM	–	–
B7	2.49 nM	302 nM	–
B8	2.78 nM	334 nM	–
B9	1.57 nM	373 nM	–
B10	6.62 nM	–	963 nM
B11	2.33 nM	440 nM	–
B12	3.74 nM	–	–

target: T1, human GIP receptor (human); test: cell-based or functional assay

Binder	Relative cAMP EC50	cAMP Rel EC50, nM (1% HSA)	cAMP Rel EC50 (in the presence of 1% HSA)
B1	0.181 nM	16.7 nM	–
B2	0.121 nM	–	21.4 nM
B3	0.119 nM	27.4 nM	–
B4	0.129 nM	–	–
B5	0.0884 nM	28.1 nM	–
B6	0.0748 nM	–	–
B7	0.103 nM	15.1 nM	–
B8	0.0909 nM	8.78 nM	–
B9	0.215 nM	37.2 nM	–
B10	0.115 nM	–	26.6 nM
B11	0.228 nM	52.5 nM	–
B12	0.13 nM	–	–
